# Experimental data: the Human Domainome abundance scans (Beltran et al. 2025)
# ± gives the uncertainty stated by the source.
# Assay: abundance fitness (aPCA) (normalised: wild type 0, dead -1); higher = more abundant; growth selection in yeast, the domain comes from the species named
# Conditions: Homo sapiens
row,Substance,abundance fitness
1,"Scaffold attachment factor B1 M58L, Q15424",-0.106 ± 0.058
2,"Scaffold attachment factor B1 A41H, Q15424",-0.449 ± 0.11
3,"Scaffold attachment factor B1 I75V, Q15424",-0.113 ± 0.049
4,"Scaffold attachment factor B1 T28E, Q15424",-0.261 ± 0.08
5,"Scaffold attachment factor B1 L61N, Q15424",-0.716 ± 0.13
6,"Scaffold attachment factor B1 I37M, Q15424",-0.057 ± 0.061
7,"Scaffold attachment factor B1 R60E, Q15424",-0.551 ± 0.089
8,"Scaffold attachment factor B1 D38N, Q15424",-0.414 ± 0.092
9,"Scaffold attachment factor B1 A41E, Q15424",-0.049 ± 0.062
10,"Scaffold attachment factor B1 D67M, Q15424",-0.167 ± 0.1
11,"Scaffold attachment factor B1 T78L, Q15424",-0.091 ± 0.057
12,"Scaffold attachment factor B1 N71D, Q15424",-0.247 ± 0.1
13,"Scaffold attachment factor B1 S50V, Q15424",-0.236 ± 0.068
14,"Scaffold attachment factor B1 D67L, Q15424",-0.278 ± 0.052
15,"Scaffold attachment factor B1 L61H, Q15424",-0.611 ± 0.085
16,"Scaffold attachment factor B1 P72C, Q15424",-0.103 ± 0.061
17,"Scaffold attachment factor B1 D49V, Q15424",-0.408 ± 0.057
18,"Scaffold attachment factor B1 R40F, Q15424",-0.822 ± 0.08
19,"Scaffold attachment factor B1 D38W, Q15424",-0.742 ± 0.067
20,"Scaffold attachment factor B1 E66M, Q15424",-0.137 ± 0.046
21,"Scaffold attachment factor B1 R29F, Q15424",-0.03 ± 0.06
22,"Scaffold attachment factor B1 V48W, Q15424",-0.281 ± 0.062

row,Substance,abundance fitness
1,"Scaffold attachment factor B1 K63Y, Q15424",-0.42 ± 0.067
2,"Scaffold attachment factor B1 E59F, Q15424",-0.637 ± 0.071
3,"Scaffold attachment factor B1 I77E, Q15424",-0.102 ± 0.092
4,"Scaffold attachment factor B1 S51N, Q15424",-0.167 ± 0.1
5,"Scaffold attachment factor B1 S32W, Q15424",-0.419 ± 0.053
6,"Scaffold attachment factor B1 A41F, Q15424",-0.145 ± 0.053
7,"Scaffold attachment factor B1 V56Y, Q15424",-0.345 ± 0.07
8,"Scaffold attachment factor B1 T28M, Q15424",-0.234 ± 0.083
9,"Scaffold attachment factor B1 L57N, Q15424",-0.521 ± 0.067
10,"Scaffold attachment factor B1 D49E, Q15424",-0.346 ± 0.077
11,"Scaffold attachment factor B1 S51P, Q15424",-0.879 ± 0.11
12,"Scaffold attachment factor B1 L61P, Q15424",-0.583 ± 0.09
13,"Scaffold attachment factor B1 T26K, Q15424",-0.31 ± 0.14
14,"Scaffold attachment factor B1 D38A, Q15424",-0.388 ± 0.056
15,"Scaffold attachment factor B1 E68R, Q15424",-0.341 ± 0.051
16,"Scaffold attachment factor B1 K54P, Q15424",-0.25 ± 0.082
17,"Scaffold attachment factor B1 V56Q, Q15424",-0.249 ± 0.083
18,"Scaffold attachment factor B1 G70N, Q15424",-0.511 ± 0.13
19,"Scaffold attachment factor B1 S51H, Q15424",-0.26 ± 0.11
20,"Scaffold attachment factor B1 R35K, Q15424",-0.217 ± 0.083
21,"Scaffold attachment factor B1 L31F, Q15424",-0.417 ± 0.098
22,"Scaffold attachment factor B1 D49A, Q15424",-0.329 ± 0.071

row,Substance,abundance fitness
1,"Scaffold attachment factor B1 V36E, Q15424",-0.381 ± 0.078
2,"Scaffold attachment factor B1 D38E, Q15424",-0.095 ± 0.059
3,"Scaffold attachment factor B1 G52L, Q15424",-1.34 ± 0.086
4,"Scaffold attachment factor B1 A41T, Q15424",-0.164 ± 0.059
5,"Scaffold attachment factor B1 S79Q, Q15424",-0.443 ± 0.11
6,"Scaffold attachment factor B1 I75H, Q15424",-0.543 ± 0.13
7,"Scaffold attachment factor B1 D67C, Q15424",-0.244 ± 0.063
8,"Scaffold attachment factor B1 A64L, Q15424",-0.146 ± 0.052
9,"Scaffold attachment factor B1 A64Y, Q15424",-0.519 ± 0.12
10,"Scaffold attachment factor B1 E42S, Q15424",-0.605 ± 0.056
11,"Scaffold attachment factor B1 E68C, Q15424",-0.586 ± 0.056
12,"Scaffold attachment factor B1 N53E, Q15424",-0.198 ± 0.087
13,"Scaffold attachment factor B1 T28V, Q15424",-0.229 ± 0.056
14,"Scaffold attachment factor B1 E80Q, Q15424",-0.274 ± 0.1
15,"Scaffold attachment factor B1 R29I, Q15424",-0.019 ± 0.062
16,"Scaffold attachment factor B1 G69M, Q15424",-0.463 ± 0.096
17,"Scaffold attachment factor B1 K63T, Q15424",-0.238 ± 0.081
18,"Scaffold attachment factor B1 R40I, Q15424",-0.179 ± 0.07
19,"Scaffold attachment factor B1 V56N, Q15424",-0.169 ± 0.064
20,"Scaffold attachment factor B1 A41L, Q15424",-0.12 ± 0.055
21,"Scaffold attachment factor B1 A64G, Q15424",-0.527 ± 0.053
22,"Scaffold attachment factor B1 S79L, Q15424",-0.118 ± 0.068

row,Substance,abundance fitness
1,"Scaffold attachment factor B1 A41N, Q15424",-0.311 ± 0.1
2,"Scaffold attachment factor B1 E68P, Q15424",-0.802 ± 0.051
3,"Scaffold attachment factor B1 A64I, Q15424",-0.109 ± 0.073
4,"Scaffold attachment factor B1 V48M, Q15424",-0.083 ± 0.082
5,"Scaffold attachment factor B1 D38P, Q15424",-0.899 ± 0.057
6,"Scaffold attachment factor B1 R30G, Q15424",-0.31 ± 0.061
7,"Scaffold attachment factor B1 G52P, Q15424",-0.916 ± 0.079
8,"Scaffold attachment factor B1 L31Q, Q15424",-0.623 ± 0.08
9,"Scaffold attachment factor B1 N47H, Q15424",-0.349 ± 0.076
10,"Scaffold attachment factor B1 G69P, Q15424",-0.419 ± 0.083
11,"Scaffold attachment factor B1 V48H, Q15424",-0.125 ± 0.08
12,"Scaffold attachment factor B1 R44T, Q15424",-0.024 ± 0.062
13,"Scaffold attachment factor B1 K62M, Q15424",-0.254 ± 0.078
14,"Scaffold attachment factor B1 E66F, Q15424",-0.256 ± 0.061
15,"Scaffold attachment factor B1 G27A, Q15424",-0.257 ± 0.061
16,"Scaffold attachment factor B1 E74M, Q15424",-0.119 ± 0.068
17,"Scaffold attachment factor B1 L31S, Q15424",-0.547 ± 0.068
18,"Scaffold attachment factor B1 R30L, Q15424",-0.218 ± 0.051
19,"Scaffold attachment factor B1 L61G, Q15424",-0.511 ± 0.051
20,"Scaffold attachment factor B1 K62G, Q15424",-0.191 ± 0.048
21,"Scaffold attachment factor B1 T26V, Q15424",-0.417 ± 0.12
22,"Gamma-crystallin C A162C, P07315",-0.092 ± 0.14

row,Substance,abundance fitness
1,"Scaffold attachment factor B1 N47K, Q15424",-0.349 ± 0.1
2,"Scaffold attachment factor B1 G70A, Q15424",-0.278 ± 0.061
3,"Scaffold attachment factor B1 E42K, Q15424",-0.852 ± 0.1
4,"Scaffold attachment factor B1 L31C, Q15424",-0.553 ± 0.069
5,"Scaffold attachment factor B1 I65M, Q15424",-0.312 ± 0.069
6,"Scaffold attachment factor B1 D33M, Q15424",-0.235 ± 0.055
7,"Scaffold attachment factor B1 E59R, Q15424",-0.078 ± 0.074
8,"Scaffold attachment factor B1 G27I, Q15424",-0.03 ± 0.079
9,"Scaffold attachment factor B1 L61V, Q15424",-0.311 ± 0.065
10,"Scaffold attachment factor B1 L57P, Q15424",-0.62 ± 0.074
11,"Scaffold attachment factor B1 G70D, Q15424",-0.354 ± 0.097
12,"Scaffold attachment factor B1 L39F, Q15424",-0.665 ± 0.089
13,"Scaffold attachment factor B1 S50Y, Q15424",-0.248 ± 0.074
14,"Scaffold attachment factor B1 L34N, Q15424",-0.496 ± 0.078
15,"Scaffold attachment factor B1 G52S, Q15424",-0.786 ± 0.057
16,"Scaffold attachment factor B1 L57I, Q15424",-0.32 ± 0.077
17,"Scaffold attachment factor B1 P72Q, Q15424",-0.432 ± 0.098
18,"Scaffold attachment factor B1 V56I, Q15424",-0.126 ± 0.067
19,"Scaffold attachment factor B1 I37Y, Q15424",-0.231 ± 0.059
20,"Scaffold attachment factor B1 D67F, Q15424",-0.293 ± 0.082
21,"Scaffold attachment factor B1 S55I, Q15424",-0.261 ± 0.09
22,"Scaffold attachment factor B1 I75F, Q15424",-0.371 ± 0.095
